Source: PMC3322289
Like-named read-outs stand apart in the source and are kept apart here.

Key:
Angiotensin II, P01019 [1] = test: radioligand
Angiotensin II, P01019 [2] = test: radioligand; remark: listed apart in the source

Angiotensin II, P01019, sequence (P01019 whole entry, looked up): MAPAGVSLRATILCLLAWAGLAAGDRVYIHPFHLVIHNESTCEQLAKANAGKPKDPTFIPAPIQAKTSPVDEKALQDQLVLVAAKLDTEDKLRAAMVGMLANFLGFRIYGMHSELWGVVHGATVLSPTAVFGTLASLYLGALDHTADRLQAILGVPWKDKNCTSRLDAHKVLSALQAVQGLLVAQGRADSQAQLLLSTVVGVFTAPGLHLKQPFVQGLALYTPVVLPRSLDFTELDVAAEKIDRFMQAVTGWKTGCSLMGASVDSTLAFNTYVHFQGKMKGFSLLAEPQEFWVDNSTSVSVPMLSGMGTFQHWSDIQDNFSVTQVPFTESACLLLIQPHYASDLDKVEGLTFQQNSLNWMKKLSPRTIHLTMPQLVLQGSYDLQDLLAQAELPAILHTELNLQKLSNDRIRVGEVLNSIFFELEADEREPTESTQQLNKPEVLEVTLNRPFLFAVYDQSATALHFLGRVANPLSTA

B1: Angiotensin II type 1 receptor (AT1R), P25095 (protein)
chain: MALNSSAEDGIKRIQDDCPKAGRHSYIFVMIPTLYSIIFVVGIFGNSLVVIVIYFYMKLKTVASVFLLNLALADLCFLLTLPLWAVYTAMEYRWPFGNHLCKIASASVSFNLYASVFLLTCLSIDRYLAIVHPMKSRLRRTMLVAKVTCIIIWLMAGLASLPAVIHRNVYFIENTNITVCAFHYESRNSTLPIGLGLTKNILGFLFPFLIILTSYTLIWKALKKAYEIQKNKPRNDDIFRIIMAIVLFFFFSWVPHQIFTFLDVLIQLGVIHDCKISDIVDTAMPITICIAYFNNCLNPLFYGFLGKKFKKYFLQLLKYIPPKAKSHSSLSTKMSTLSYRPSDNMSSSAKKPASCFEVE
Kd (Angiotensin II, P01019 [1]): 3.57 nM
Kd (Angiotensin II, P01019 [2]): 3.32 nM
